Test: label from the status in PepcDB records

For “MNDRKILVAYFSCSGVTKAVAEKLAAITGADLYEIKPEVPYTEADLDWNDKKSRSSVEMRDALSRPAISGTLFHPEKYEVLFVGFPVWWYIAPTIINTFLESYDFAGKIVVPFATSGGSGIGNCEKNLHKAYPDIVWKDGKLLNGQITRDLVTEWFEKIRL”, the protein production was “not failed”.
With “MNQYVKIEVQQGDTLWSIADQVADTKKINKNDFIEWVADKNQLQTSDIQPGDELVIPLKKKHQDAYELATLEHHHHHH” the protein production was “failed”.
With “MIDELRALAVFAKTTETGSFRAAARALGLAPSVVSHHVSQLESRLGVALLYRSTRRLSLTPDGQALYGHAQAMLQAAETGLNELAGRAAEPAGTLRLSLPAFFARGPLTTSLAAFSRCHPKVELELDYSDEKRDLIRDGIDLAIRIGELQDSALKSRRLFDMPRLLVAAPSLLDARGEPASPAELADWPWLGIRMRAKRKTLIDAAGRRHDFAIQPRITANSVDAACQLAIAGCGLATPPAFLVENELAAGQLRVVLPDCQVEALGVYAVWPANAARESLTLRLVRFLAELPPHQ” the protein production was “failed”.
For “MTKFNWHESAEKKWDSSAEFWNQNSQEMWDSGSRSTIIPFFEQYVKKEAQVLDVGCGDGYGTYKLSRAGYKAVGVDISEVMIQKGKERGEGPDLSFIKGDLSSLPFENEQFEAIMAINSLEWTEEPLRALNEIKRVLKSDGYACIAILGPTAKPRENSYPRLYGKDVVCNTMMPWEFEQLVKEQGFKVVDGIGVYKRGVNEKMLGQLSTELQQSLTFLWVFMLKKHKEMKEFLGGK”, the protein production was “failed”.
With “MVDAASTGLFLDAAGMKALGAAIAIAVTGLASAIAEKDIGTAAIGAMAENEGLFGKGLILTVIPETIVIFGLVVALLINQ” the protein production was “failed”.
In the case of “MAKRCALTFKGPMIGNHVSHANNKNKRRLLPNLRSIKIQLDDGTTKRIKVAASTLRTMRKGALEHHHHHH”, the protein production is reported as “not failed”.
In the case of “MSIESLWSSRFQQHIQNIITYFARMINGLLYSFIFISCVGAYYYAQFLKASPSKGISLIIITIVLTFIITRCPIRTFIQKPDAVYLLALEEKLTSYFKKSLLYNYIMQLFPLLFTFLILVPLAMQSLQLTVPFLCTIFIVLMITKAWNMYIHWMWRDSHEKNIWLIIRITCNALIIYMLFYSANVLILGGLLLLLAFLLLYTKKQPTKRIPWDYIIEQEEKMNVRFYQFASIFTDVPQLNKQVNKRKWLTNWIEPLLHKKRATFFYLHTLAFLRGNDYFGIYIRLRLIGAFALYFIPNIYVKGAIAYIVLYMISMQLRSLWKYFSGNIIVALYPIHTEERMKQFLHLIFILLSIQLIVFSSVILIATGQFLHILIIMIVGLLWIKFIIVPKTKQRISAF”, the protein production is reported as “failed”.
For “MLSNILPLSIGAIFGTTARWLLNLAVPASLSPATGNLFANWTGALLIGIFAETVSHPQWKLLLITGFFGSLTTLSGFSLETVTLLQSNRPASALANIFLHTAGSLLLTWLGLKIGTAVK”, the protein production was “failed”.
In the case of “IYLYATATGEVRQMHGITVDRERERRVPDHHQLDSDTTTHSHSVKNQEYYKLLHENDTWKLSQSLKDRPFVALNPTRKAQMLAHLCNDLLMNKAVLRQIDGSLETCAQMRKEKYMTDMKVRKYKALHMRKARIEAYERAQAEREAAMQALM”, the protein production is reported as “failed”.
In the case of “MSNEISLCMIVKNEEKYLFQCLDSVKDIVDEIIIVDTGSTDKTVEIAKKFGAEIHYFMWNNSFSDARNESLKYATKDWIFIMDGDDEFSKDDKEKFKELVKNNLKEDCLYYFETLSYCGEFVDSSNISVNLNPRLFKNNYGYKYEGIVHNQLINTEKEIKNVIYNIRIYHYGYLEDVSKKKNKRGRNIPLLKKQLKENPDDRFAHFNIGNEYYAIGDLQKALTHYCEAYKDFNPSSGFGFVLITRLIVTNFGIGKHEKAIEFADIGLEYYPNATDIYFLKALIYEATRRPTLAIKALKRCIEMGEPPSNLKLYYGTWSFKALYELVNIYMGLKDYEEAYKYCIETIKAKNDFVNPVYVIGHILKERKTPIEEFKVELEKLFSDYPKAYFFIANILYDEGYFNEALEYTDKCEKEGLNSDAILDLKLKAMIRAQKFNECAEANYFAKESVFYFNASMYKVLSLVLIGKFKEALKDLEIFKDGKLKRQDKKELEVYSQFVKLFMNEETKVLSEDKEDKEYTGFILDICDILLSNKLYDEFEKALNLFNLISDENVLLNLSKLYYKHGIESMAKKEAIRSIKEFEVFDNEILDILR”, the protein production is reported as “failed”.
With “MFLRGNPDKTEPAFDARPLKTKEIARFGEGTPLPWLDRHALACVDASGDLRDVLKSTALAITLFCACTGPAMAYAPDETPIVIGRSTLLESKVLGQLRRINVHTPADYATSGKTYPVLFLLDGGEREDFPHIAGLAQLGELSWTYREMIVVGIEGIDRRHDLTHPSTVAQEQADFPTLGGSAAYRRFLSEELKPWVAARYRTNGESAIMGESLAGLFVIETLLKQPTLFDAYIAASPSLWWSDQALARGAPADIARWPALGSRKLYLTIGDEGSTMQEGVDKVMAAIGAAKPAGLTLVYDPMPHEQHSTIYHPAALKAFRTVWPGPRPD” the protein production was “failed”.
In the case of “MSAKTNAEVVIDGKVYTLSGYENEEYLQKVAAYINNKIAEFDDMDEYKHLPGNMKSTLIELNIADDYFKAKALVEKLEGDIENKDKEIYDLKHDLISNQVKTENAEASMKELEAQNKELLLNKARLEATLEESLLDGKKPVKKSAHASKGANDSSDK”, the protein production is reported as “failed”.
In the case of “MDKTKTFCKASLVSIALVLLLVSSAALAATENDTGNATIKDDYVSSTAMANTEGSSLPKVTETQITTSGFHPAIYGNRIVWTDYHDEECNIYMYDLSTKKETQITTSGDVSGSDIYGNRIVWSNYVYPNEVYMYDLSTSQKSTISGYNSYVDSLSIYGDKVVWGDSLDDYVSIFMHDLSTKEETLLTYDAYNPAIYGNRIVWEDRFDDNIYMYDISTKKQTRITNGGAADDPAIYGNRIVYASTHDGNTDIYMYDLSTKKQTQITSSPDAQTHPAIYGNRIVWEDDGGEDDGYTNHGIYMYDISTNQKMKISTKGSAYSPTIYGNNIVWEYYNNENGKLRNLHGHYFRTKTEPSYCCILCIPNFRKNTIKSYFY”, the protein production is reported as “failed”.
With “MDGSEDDPTIFSARCLPSDPRLWATVTNSYLGTRVYHDTIHINGVYNGAVGDTHRASLPSPLNVQLEAPAGTEQLTETFTLDTNTGSFLHTLEGPSFRASQRIYAHRVLPHVLVFSVSIARLTTGNKPITVPLRADFSPESPDLDLRVGPDFQGLRYLHGHVLNPEQPGEPQQEVHMLWMPVPPALTLGEEEKDRTWEFLTVVGSSQAEAQDCFAEALQLQTRGVLYTIHADSWGRLWAGCGLDVAGPLALRQALRGSLYYLFSELPQPGTQGFISHGLSPGGLSNGSKEECYWGHIFWDQDIWMFPNILMFHPEAARAILEYRVRTLGGALKNGQNLGYQGAKFAWESASTGLEVCPEDIYGTQEIHINGAVALAFQLYYYYTQDSKLFQEDGGWDVVSSVAEFWCSRVEWSSQDKMYHLKGVMPPDEYHSGVNNSVYTNVLVQNSLHFAAALAKDLGLPIRKQWLEVADRIKIPFDSEQNFHPEFDGYERGEEVKQADVVLLGYPVPFPLTPDIRRKNLETYEAVTSPQGPAMTWSMFAVGWMELRDPSRAQVHLSRSFANVTEPFKVWTENADGSGAVNFLTGMGGFLQAALFGCTGFRITEAGVTFDPLCPDLVSRVSVSGISYLGNKINFAFSKDSVTLEVTARAEPWAPLLEAELWPSLAHLPLTPGQKVSFPHSAGRIQRSSP” the protein production was “failed”.
In the case of “KMLMPIEFELVESAPLFHELLHLRDAVGLPSIGVDMADGHPLQPLYWVSIHLTAKQDKNTATIVATACVYGDNANHFAIEDFIVLPEYRHIGLGKIILERVMAFVDDRATLGTYVSINTHGEQEKLCTDYGFAHSH”, the protein production is reported as “failed”.
For “MPGYQKTKDVGHFLSVTGTVIRTSLVKVLEFERDYMCNKCKHVFVIKADFEQYYTFCRPSSCPSLESCDSSKFTCLSGLSSSPTRCRDYQEIKIQEQVQRLSVGSIPRSMKVILEDDLVDSCKSGDDLTIYGIVMQRWKPFQQDVRCEVEIVLKANYIQVNNEQSSGIIMDEEVQKEFEDFWEYYKSDPFAGRNVILASLCPQVFGMYLVKLAVAMVLAGGIQRTDATGTRVRGESHLLLVGDPGTGKSQFLKYAAKITPRSVLTTGIGSTSAGIVLNCTVSPGSLVCKLNTRTTILAATNPKGQYDPQESVSVNIALGSPLLSRFDLILVLLDTKNEDWDRIISSFILENKGYPSKSEKLWSMEKMKTYFCLIRNLQPTLSDVGNQVLLRYYQMQRQSDCRNAARTTIRLLESLIRLAEAHARLMFRDTVTLEDAITVVSVMESSMEVHC”, the protein production was “failed”.
For “MGSGHILGTSRLPKETWMANAECFVLMLPLRECAGRCHVCLKTAYTMRHRLIECLSAYSPSFKTGRGCGCELDETYFPESFKGNHTKGSFTMPRHSRHRGKQVHRRGLSREQICVMTGVNDSNETFLQVSGRGILSRKRAMDVLRDRIASASVVATDKASAYVDVLAELEVDAHTAYDSKDPSEGTINRINTVHSLLDTFMKPFKGVSTKHLGTYLAWFKWCRTFMATDSGTAERTVARQLANGVCRSRIHDMFNVLPP”, the protein production was “failed”.
For “MFSAKKLSPADKLKNISSMLEEIVEDTTVPRNIRAAADNAKNALHNEEQELIVRSATAIQYLDDISEDPNMPIHTRTQIWGIVSELETIK”, the protein production was “not failed”.
For “MLEGIYLALDKMFGPMLRNTHPMWVVTVSGVILGAFFVLLNYFLVDQEKMKRLQKMAKELQEEFKKARESGDEKKLRKLQQKQLELLRLQNELMKDAFLKPMLITWPIIIIFWGWLKRWYFETAIVKYPFNFFLFDIFHKMYHSALKPDELGYFGWYFLTSYVVGTILRKVLDMA”, the protein production was “failed”.
For “MSDARAWDSPDDAHRLIAKALAELVAEDPTIPPHPYLSRHLAQHAARGRVLDDTHVPLAILPWESSRNVRILLRQTGATQQQDWLEAWAGIEPFVRDADPDSRLTSLHLAHHTATCRRLSLTARPVSERRLAGSRITPLWSDWTAPDNVLAVSDTLVESLAHTTTAPGRTLLISGDSHGTIRMWEANGTPAGAPLHTHGGAIQHLLPLQHDLLVSGGTDGAVRVWHSTRGQQLVEPVRRPHTWVSALALFEPADGARFLLVAHSDGHLTALDPVTFEPADTPLPALDPAPAILTPLATADGTALVIAQGRRVVVWRPGRGVVHISEHQGEVRAVVALPSGGRYAVCDDSGYLGFWDVSTGHETVAAGPAHDGPVIALTTLAVDGRQTVVSAGLDHTLRVWDADTGRPVGGALEGHTDPPVALTTLPGEGQELVVSAAADHTLRRWKLAGHGTRPRRPVRRPVTAAALPGPTVVPALLAAVADGAGTALWNVRTGRHVSLPAGEPPVTAFAWATVHGDPVLLTAHSDAAVRLWSLYAGNAVTPSLRGTLLNHSLPVQAMTAFPHAGATLLATGGADGSVRLWHLGDRLELAHWDDHALSVRDVTLLGTGEDALIVSAGSDGTVRLWDPGTRRASGGPVHCGQQVVHAVTTVAPHPDEAALIASGGEDGTVRLWDPTTRQPVGDPLDARDGAVTALASFHTPAGRPCLAAAGPSGTIHLWDVAARTHLLRIVTGNPLSTLAARQTGEPFTEHPVLLAAGTAGVCMFDVRLERLR”, the protein production was “failed”.
With “MSQSNSNHSPQEQWQQAVLTYARDINRYVETGNRDGWKGLKEPHLPDTEHLLPDWQAALEASNQEPYDAARRQAFRQEWPPAHFPLSPRLESQGRMIPTLALLPDGSLLARIGAPYEAGEVVHIDDARIQPLEQVEGFGMCPQRRYFAWARADGIQLTDGWNGPEVASFAWPDPHANLPAGVALEDTGRPRPSSLIPFPDGRRVLLVSSDGIFVLQAEGATRLLPSLEDLQQELADGVAPEDLGIGLSMEHGAVSPDGQWIAVGEQSSSHLVFDARLQRVAQIGPASEYPHFAHFNQRGDRLLLNACHFYGGASVGVAVADLPGLSTDFYSDDARTPVLQEGARVYAAASRGDEFIIGDAYGYLRAFSENGEERWQHYIGSTLTAMDISPDGKTLVAATYAGIIVKLDLDAGRPDWQIGTGEHLEVQRWLFWKDFAKPLLW” the protein production was “failed”.
In the case of “MKRTGILLVNLGTPKDSSKTEVRKYLKTFLSDRRVIKIHPIIWKPILNGIILNIRPKKSAKLYQKICTENGFPLLEYTEKQMENLKNICPEVEVTIGMSYSEPSIETALDTLLSKEIEELNVIPMYPQYSGTTVGSVFDSVMNYFIKSDRIVDIKFIRSFYNNPQYIDYFSKKINEALNESPIDAIVFSYHGIPMSYVKDGDNYPKECTKTTKLIMDKLGDIRYYQTYQSKFGPSEWLKPATDDTLKKLPSKGIKNILIVAPGFVVDCLETIEELEHENRNYFLENGGEVYKYVHPFNGDIEFAKLVKDIISL”, the protein production is reported as “failed”.
